Broadly, the Kd is the equilibrium constant for the complex coming apart. By stoichiometry N is commonly meant the number of molecules, sites or subunits per partner or assembly.

This note sets out measurements from article PMC4145800.

Assay [1] addresses wild-type (polymerization-competent) yeast αβ-tubulin (yeast) (UniProt P09733). As to the kind of experiment: AUC; sedimentation velocity; seven concentrations of TOG1 or TOG2 (44 nM-4.5 μM) titrated into 0.35 μM αβ-tubulin; 1:1 binding isotherm fitted; RB100 with 20 μM GTP, 20°C.
Assay [2] shares this target. As to the kind of experiment: AUC; sedimentation velocity; TOG1-TOG2 or its mutants mixed with αβ-tubulin (∼5 molar equivalents of αβ-tubulin; seven concentrations of TOG1-TOG2 with 0.3 μM αβ-tubulin); two-site binding model; RB100 with 20 μM GTP, 20°C.

On to “TOG1 domain from Stu2p, TOG1(1-317) (from UniProt P46675 1-317) (domain or fragment)”, for which, in assay [1], the dissociation constant (Kd) was determined as 70 nM and the stoichiometry N is 1.
As to “TOG1-TOG2 of Stu2p with the mutation R519A (from UniProt P46675 1-560) (domain or fragment)”, the stoichiometry N (αβ-tubulin per TOG1-TOG2) in assay [2] stood at 1.
With “TOG1-TOG2 of Stu2p with the mutation printed as W314A (from UniProt P46675 1-560) (domain or fragment)”, the stoichiometry N (αβ-tubulin per TOG1-TOG2) in assay [2] was 1.
As to “TOG1-TOG2(1-560) of Stu2p (from UniProt P46675 1-560) (domain or fragment)”, the stoichiometry N (αβ-tubulins per TOG1-TOG2) in assay [2] was determined as 2.
